The record followed here is patent US20210292428A1 (US Dept. of Health and Human Services, published 2021).

The target of test [1] is T1, Human GPC2-His (human, UniProt Q8N158 24-554).
T1 sequence: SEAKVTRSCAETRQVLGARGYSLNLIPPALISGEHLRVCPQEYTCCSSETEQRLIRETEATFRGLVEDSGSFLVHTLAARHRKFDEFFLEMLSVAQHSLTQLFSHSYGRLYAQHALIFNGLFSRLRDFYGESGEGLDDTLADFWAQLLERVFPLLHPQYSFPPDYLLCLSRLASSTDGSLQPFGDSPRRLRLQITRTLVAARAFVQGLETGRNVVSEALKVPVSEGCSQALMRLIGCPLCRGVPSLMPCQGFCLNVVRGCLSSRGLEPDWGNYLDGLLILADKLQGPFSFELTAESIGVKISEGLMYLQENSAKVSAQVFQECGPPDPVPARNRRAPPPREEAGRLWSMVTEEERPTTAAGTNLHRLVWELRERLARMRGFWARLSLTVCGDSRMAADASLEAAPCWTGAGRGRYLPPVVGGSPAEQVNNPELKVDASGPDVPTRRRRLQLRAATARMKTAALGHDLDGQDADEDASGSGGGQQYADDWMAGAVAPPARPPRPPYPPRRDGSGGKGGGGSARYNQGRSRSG

The target of test [2] is T2, recombinant human glypican-2 (GPC2) (human, UniProt Q8N158 24-554, limits assumed).
T2 construct: also called human GPC2; huGPC2
T2 sequence (looked up): T1 sequence
The experiment in a line: Octet kinetic analysis (BLI), FIG. 1C.

The target of test [3] is T3, recombinant human glypican-3 (human, UniProt P51654 25-559).
T3 construct: also called human GPC3; huGPC3
T3 sequence (P51654 25-559 limits assumed): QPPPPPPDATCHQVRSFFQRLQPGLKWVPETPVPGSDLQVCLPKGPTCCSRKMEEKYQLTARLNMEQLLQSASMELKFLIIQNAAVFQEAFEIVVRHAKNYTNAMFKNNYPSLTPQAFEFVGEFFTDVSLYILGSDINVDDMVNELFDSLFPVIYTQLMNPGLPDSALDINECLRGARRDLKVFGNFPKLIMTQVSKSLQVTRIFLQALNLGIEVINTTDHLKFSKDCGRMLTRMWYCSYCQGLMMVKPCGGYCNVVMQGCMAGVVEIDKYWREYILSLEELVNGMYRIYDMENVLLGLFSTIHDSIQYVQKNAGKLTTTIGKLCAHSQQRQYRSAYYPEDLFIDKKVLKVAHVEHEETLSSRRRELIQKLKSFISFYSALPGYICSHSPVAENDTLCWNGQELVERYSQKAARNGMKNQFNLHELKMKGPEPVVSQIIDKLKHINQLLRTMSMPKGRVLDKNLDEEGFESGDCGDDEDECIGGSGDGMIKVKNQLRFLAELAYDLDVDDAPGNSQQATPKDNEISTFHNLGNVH
The experiment in a line: ELISA on recombinant glypican proteins, absorbance OD450nm.

Test [4] deals with T4, recombinant human glypican-6 (human, UniProt Q9Y625 24-529).
T4 construct: also called human GPC6; huGPC6
T4 sequence (looked up): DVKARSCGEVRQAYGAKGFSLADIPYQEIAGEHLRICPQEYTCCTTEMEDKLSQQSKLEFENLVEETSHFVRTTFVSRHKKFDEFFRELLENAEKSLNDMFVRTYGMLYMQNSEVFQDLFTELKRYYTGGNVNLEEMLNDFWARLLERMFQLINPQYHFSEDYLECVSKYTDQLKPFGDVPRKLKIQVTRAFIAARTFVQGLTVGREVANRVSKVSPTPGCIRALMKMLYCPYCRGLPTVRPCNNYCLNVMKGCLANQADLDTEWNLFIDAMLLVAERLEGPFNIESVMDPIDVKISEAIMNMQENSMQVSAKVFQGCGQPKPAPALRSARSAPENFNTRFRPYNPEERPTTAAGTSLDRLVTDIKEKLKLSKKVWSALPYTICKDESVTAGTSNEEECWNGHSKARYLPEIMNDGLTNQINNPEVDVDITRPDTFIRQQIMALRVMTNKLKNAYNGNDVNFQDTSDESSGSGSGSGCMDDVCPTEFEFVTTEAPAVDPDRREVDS
The experiment in a line: ELISA on recombinant human glypicans and mouse GPC2, absorbance OD450nm.

Test [5] addresses T5, recombinant mouse GPC2 (mouse, UniProt Q8BKV1 22-556, limits assumed).
T5 construct: also called msGPC2
T5 sequence (looked up): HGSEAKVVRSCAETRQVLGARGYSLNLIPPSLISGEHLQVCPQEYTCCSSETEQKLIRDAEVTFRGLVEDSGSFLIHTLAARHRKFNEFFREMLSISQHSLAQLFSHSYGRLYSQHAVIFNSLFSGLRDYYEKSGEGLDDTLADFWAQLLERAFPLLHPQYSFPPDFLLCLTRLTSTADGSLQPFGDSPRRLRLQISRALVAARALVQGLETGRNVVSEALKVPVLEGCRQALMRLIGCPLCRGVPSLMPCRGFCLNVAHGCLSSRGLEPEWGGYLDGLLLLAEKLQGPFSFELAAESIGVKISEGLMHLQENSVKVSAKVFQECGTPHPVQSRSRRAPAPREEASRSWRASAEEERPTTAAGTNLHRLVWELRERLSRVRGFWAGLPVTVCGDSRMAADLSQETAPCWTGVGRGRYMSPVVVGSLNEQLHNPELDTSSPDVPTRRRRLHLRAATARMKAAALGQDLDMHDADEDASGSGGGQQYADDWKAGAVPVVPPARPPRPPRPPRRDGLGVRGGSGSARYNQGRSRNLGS
The test is described as above.

Test [6] deals with T6, recombinant human glypican-1 (human, UniProt P35052 24-530).
T6 construct: also called huGPC1
T6 sequence (looked up): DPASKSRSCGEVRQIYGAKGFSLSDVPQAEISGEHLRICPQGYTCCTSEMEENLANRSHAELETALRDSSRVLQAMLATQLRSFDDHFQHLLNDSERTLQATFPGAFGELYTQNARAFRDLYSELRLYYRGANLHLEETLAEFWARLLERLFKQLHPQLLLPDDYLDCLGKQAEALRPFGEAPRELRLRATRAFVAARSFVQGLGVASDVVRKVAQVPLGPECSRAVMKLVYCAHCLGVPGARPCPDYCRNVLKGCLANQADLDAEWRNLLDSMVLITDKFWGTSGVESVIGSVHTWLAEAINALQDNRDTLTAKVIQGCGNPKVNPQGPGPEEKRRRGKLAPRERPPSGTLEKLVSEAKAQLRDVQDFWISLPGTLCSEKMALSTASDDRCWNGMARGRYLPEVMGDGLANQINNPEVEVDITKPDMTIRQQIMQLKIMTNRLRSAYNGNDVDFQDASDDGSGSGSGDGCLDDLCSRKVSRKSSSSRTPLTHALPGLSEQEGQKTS
The test is described as above.

For test [7], the target named is T7, recombinant human glypican-4 (human, UniProt O75487 19-529, limits assumed).
T7 construct: also called huGPC4
T7 sequence (looked up): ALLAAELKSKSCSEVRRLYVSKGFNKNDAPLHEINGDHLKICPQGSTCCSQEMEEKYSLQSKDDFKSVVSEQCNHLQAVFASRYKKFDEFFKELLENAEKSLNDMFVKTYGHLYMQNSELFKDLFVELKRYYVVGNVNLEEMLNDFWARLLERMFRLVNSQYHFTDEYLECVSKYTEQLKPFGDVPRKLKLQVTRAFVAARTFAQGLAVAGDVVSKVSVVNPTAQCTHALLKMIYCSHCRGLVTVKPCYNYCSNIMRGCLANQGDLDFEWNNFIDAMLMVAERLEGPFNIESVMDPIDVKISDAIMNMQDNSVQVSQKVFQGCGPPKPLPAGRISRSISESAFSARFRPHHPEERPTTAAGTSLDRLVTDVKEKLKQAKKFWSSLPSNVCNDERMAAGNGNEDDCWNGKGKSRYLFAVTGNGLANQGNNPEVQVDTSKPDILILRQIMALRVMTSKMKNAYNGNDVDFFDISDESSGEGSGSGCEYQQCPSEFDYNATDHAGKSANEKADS
The description is as above.

Test [8] deals with T8, recombinant human glypican-5 (human, UniProt P78333 25-554, limits assumed).
T8 construct: also called huGPC5
T8 sequence (looked up): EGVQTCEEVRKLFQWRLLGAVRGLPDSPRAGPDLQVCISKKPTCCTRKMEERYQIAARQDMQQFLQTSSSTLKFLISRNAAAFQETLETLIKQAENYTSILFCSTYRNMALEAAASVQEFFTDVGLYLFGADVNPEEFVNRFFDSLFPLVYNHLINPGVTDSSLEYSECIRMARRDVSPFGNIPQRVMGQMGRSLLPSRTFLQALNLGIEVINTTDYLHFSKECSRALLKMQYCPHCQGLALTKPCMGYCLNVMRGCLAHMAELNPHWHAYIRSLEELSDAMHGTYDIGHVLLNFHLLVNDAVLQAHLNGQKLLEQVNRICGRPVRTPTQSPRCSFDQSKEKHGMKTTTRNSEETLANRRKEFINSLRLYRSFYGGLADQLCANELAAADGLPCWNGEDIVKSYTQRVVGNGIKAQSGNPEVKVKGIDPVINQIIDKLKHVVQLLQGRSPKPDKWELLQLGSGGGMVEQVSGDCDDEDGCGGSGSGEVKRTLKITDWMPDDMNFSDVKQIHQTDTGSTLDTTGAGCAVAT
The description is as above.

In test [9] the target is T4, recombinant human glypican-6. The experiment in a line: ELISA on recombinant glypican proteins, absorbance OD450nm.
Test [10] concerns the target T2, recombinant human glypican-2 (GPC2). The test is described as above.
For test [11], the target named is T8, recombinant human glypican-5. The test is described as above.
The target in test [12] is T9, human GPC2 expressed on the cell surface (human, UniProt Q8N158 24-554).
T9 construct: whole, on cells; also called cell-surface GPC2; GPC2 on LAN1, IMR5, G10, F8, SKNBE2 and NBEB cells
T9 sequence (looked up): T1 sequence
The experiment in a line: flow cytometry on GPC2-positive neuroblastoma cell lines LAN1 and IMR5, CT5 at 10 ng/ml, counts normalized to mode.

B1: CT3-PE38 immunotoxin (other)
chain: EVQLQQSGPELVKPGASVKMSCKASRFTFTDYNIHWVKQSPGKTLEWIGYINPNNGDIFYKQKFNGKATLTINKSSNTAYMELRSLTSEDSAVYYCVRSSNIRYTFDRFFDVWGTGTTVTVSSGGGGSGGGGSGGGGSENVLTQSPAIMSASLGEKVTMSCRASSSVNYIYWYQQKSDASPKLWIYYTSNLAPGVPARFSGSGSGNSYSLTISSMEGEDAATYYCQQFSSSPSTFGTGTKLELKSAAKASGGPEGGSLAALTAHQACHLPLETFTRHRQPRGWEQLEQCGYPVQRLVALYLAARLSWNQVDQVIRNALASPGSGGDLGEAIREQPEQARLALTLAAAESERFVRQGTGNDEAGAANGPADSGDALLERNYPTGAEFLGDGGDVSFSTRGTQNWTVERLLQAHRQLEERGYVFVGYHGTFLEAAQSIVFGGVRARSQDLDAIWRGFYIAGDPALAYGYAQDQEPDARGRIRNGALLRVYVPRSSLPGFYRTSLTLAAPEAAGEVERLIGHPLPLRLDAITGPEEEGGRLETILGWPLAERTVVIPSAIPTDPRNVGGDLDPSSIPDKEQAISALPDYASQPGKPPREDLK
Molecule B1 gave a Kd in [1] of 0.22 nM.

B2: CT3 antibody (antibody, IgG1, V domains shown)
VH: EVQLQQSGPELVKPGASVKMSCKASRFTFTDYNIHWVKQSPGKTLEWIGYINPNNGDIFYKQKFNGKATLTINKSSNTAYMELRSLTSEDSAVYYCVRSSNIRYTFDRFFDVWGTGTTVTVSS
VL: ENVLTQSPAIMSASLGEKVTMSCRASSSVNYIYWYQQKSDASPKLWIYYTSNLAPGVPARFSGSGSGNSYSLTISSMEGEDAATYYCQQFSSSPSTFGTGTKLELK
notes: also called anti-GPC2 antibody CT3
As to B2, in [2], the Kd amounted to 0.5 nM. Further, the binding result in test [3], in [4], in test [5], in test [6], in test [7] and in [8] was “no binding” in each case.

B3: CT5 antibody (antibody, IgG1, V domains shown)
VH: EVKLVESGGGLVQSGRSLRLSCATSGFTFSDFYMEWVRQAPGKGLEWIVASRDKANDYTTAYSASVKGRFIVSRDTSQSILYLQMNALRAEDTAIYYCVRDFYDYDEAYWGQGTLVTVS
VL: DIQMTQSPSSLSASLGGTVTITCKASEDINNYIAWYQHKPGKGPRLLIQYTSTLQPGIPSRFSGSGSGRDYSLSISNLEPEDIATYYCLQYDILWTFGGGTKLEIK
With B3, the binding result in test [9] is given as “no binding”; in test [10], “binds”; in [3], “no binding”; in test [11] it was “no binding”; in test [12] it was “binds”.

B4: CT3-T20 immunotoxin (other)
chain: EVQLQQSGPELVKPGASVKMSCKASRFTFTDYNIHWVKQSPGKTLEWIGYINPNNGDIFYKQKFNGKATLTINKSSNTAYMELRSLTSEDSAVYYCVRSSNIRYTFDRFFDVWGTGTTVTVSSGGGGSGGGGSGGGGSENVLTQSPAIMSASLGEKVTMSCRASSSVNYIYWYQQKSDASPKLWIYYTSNLAPGVPARFSGSGSGNSYSLTISSMEGEDAATYYCQQFSSSPSTFGTGTKLELKKLKASGGRHRQPRGWEQLGGGGGSPTGAEFLGDGGDVSFSTRGTQNWTVERLLQAHAQLEERGYVFVGYHGTALEAAQSIVFGGVRARSQDLDAIWRGFYIAGDPAHAYGYAQDQEPDARGRIANGALLRVYVPASSLPGFYRTSLTLAAPEAAGEVERLIGHPLPLRLDAITGPEEEGGREETILGWPLAERTVVIPSAIPTDPRNVGGDLDPSSIPDKEQAISALPDYASQPGKPPREDLK
B4: the Kd in test [1] stood at 0.16 nM.
